These are literature values, as cited in PMC2682639.

A value given as a limit tells only on which side of the number the result lay.

In the data set the target is Hint1 (Homo sapiens) (UniProt P49773).

Hint1, sequence (P49773 2-126): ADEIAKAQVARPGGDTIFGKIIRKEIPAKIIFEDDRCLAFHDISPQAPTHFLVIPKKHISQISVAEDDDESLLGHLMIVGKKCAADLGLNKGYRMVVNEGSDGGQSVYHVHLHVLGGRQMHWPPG

By Kd is commonly meant a measure of binding affinity in units of concentration. For the substance Hint1 (from UniProt P49773), the Kd is less than 1 nM.
